# Test results reported in paper PMC10557607 (bioRxiv, 2023).
# Molecular target: the molecule itself
# Assay: SEC + other: dynamic light scattering
protein,measurement,value
"AlbB expressed alone (natural protein, Streptomyces noursei) MNPGETVLPPQLREEIALLAVYLLSSGRGLLEEPADYGIYRCTDGARRALQLLDEHGGSTARLTAVRERLDEVMFAPMGEDRDMGAILDDLCRQMADALPEIETP",stoichiometry N,2
